Measurements: article PMC6488296, “Optogenetic control shows that kinetic proofreading regulates the activity of the T cell receptor” (eLife, 2019)

Target: T1, PhyB_(1-651)-Avitag-His6 (A. thaliana, UniProt P14713 1-651, phycocyanobilin chromophore; biotin on the Avitag)
T1 construct: phytochrome B (PhyB), Arabidopsis thaliana, the light-responsive N-terminal 651 amino acids; 740 nm light puts them in the OFF state; also called PhyB(660); PhyB(740); source: E. coli BL21(DE3) co-transformed with p171 (phycocyanobilin production), 50 uM biotin in the medium, purified (Ni-NTA); not shown: Avitag, C-terminal, kept; His6, C-terminal, kept
T1 sequence (looked up): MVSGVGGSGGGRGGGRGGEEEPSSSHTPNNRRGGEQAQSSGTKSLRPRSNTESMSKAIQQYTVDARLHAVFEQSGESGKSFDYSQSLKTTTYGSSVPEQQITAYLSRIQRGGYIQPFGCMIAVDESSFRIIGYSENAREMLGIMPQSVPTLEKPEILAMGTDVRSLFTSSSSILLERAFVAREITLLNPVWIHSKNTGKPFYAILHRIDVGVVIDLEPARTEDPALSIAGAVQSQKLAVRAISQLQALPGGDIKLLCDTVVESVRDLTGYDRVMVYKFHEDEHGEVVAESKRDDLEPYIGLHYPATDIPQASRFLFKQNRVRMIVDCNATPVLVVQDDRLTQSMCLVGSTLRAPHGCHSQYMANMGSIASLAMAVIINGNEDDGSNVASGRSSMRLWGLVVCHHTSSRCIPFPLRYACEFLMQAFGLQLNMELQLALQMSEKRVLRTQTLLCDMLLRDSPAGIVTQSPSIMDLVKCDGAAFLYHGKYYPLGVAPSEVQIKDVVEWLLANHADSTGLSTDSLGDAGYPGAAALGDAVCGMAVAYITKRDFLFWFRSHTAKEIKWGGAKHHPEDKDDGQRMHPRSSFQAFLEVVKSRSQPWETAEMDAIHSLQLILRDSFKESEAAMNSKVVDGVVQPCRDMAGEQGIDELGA
Assay: SEC; 200 ug PhyB illuminated with 660 nm light, added in a 2:1 molar ratio to MBP-PIF (limiting MBP-PIF); 60 min at room temperature; Superdex 200 10/300 GL; PhyB detected at 671 nm
Details: both partners purified

B1: MBP-PIF6_(1-100)-His6 (domain or fragment, A. thaliana, UniProt Q8L5W7 1-100, looked up)
chain: MMFLPTDYCCRLSDQEYMELVFENGQILAKGQRSNVSLHNQRTKSIMDLYEAEYNEDFMKSIIHGGGGAITNLGDTQVVPQSHVAAAHETNMLESNKHVD
notes: also called MBP-PIF(wt); pOSY061; source: E. coli BL21(DE3), purified (Ni-NTA); not shown: His6, C-terminal, kept
  binding result: binds
